Laboratory results as given in the RNAGym collection of RNA variant scans (doi:10.7554/elife.80360).

B1: HDV Ribozyme (parent)
chain: GGCCGGCAUGGUCCCAGCCUCCUCGCUGGCGCCGGCUGGGCAACAUUCCGAGGGGACCGUCCCCUCGGUAAUGGCGAAUGGGACCCA

Variants of: B1
Experiment: self-cleavage, relative activity (ratio to wild type); higher = more cleavage; co-transcriptional

Variant	self-cleavage
C58G U72C	0.369
C58G U72G	0.447
C58G U79C	0.366
C57A G76C	1.05
C57A G76A	1.18
G59A C86A	0.842
U60A U69C	1.08
A56G C66G	1.01
C57A G67U	1.06
C58U U69A	0.89
C58A G68C	1.03
U60A C75U	0.253
U60A C75A	0.0811
G59U A77G	0.847
U60G C62U	1.05
U60C G67C	0.554
G59U G76A	0.925
C57U C58G	0.762
A56G U65A	0.867
A56G U65G	0.957
C58G A77G	0.831
U60A C64A	0.878
U60A C64G	0.954
C58G A70U	0.929

Variant	self-cleavage
C58G A70G	1.03
A56G A70C	0.935
A56G A70G	1.14
G59A G68A	0.968
C57G A83G	0.917
U60C C62A	1.01
C57U C84G	0.673
A56U A83G	0.876
C57U G67C	1.11
C57A A71G	0.98
A56C U79C	0.379
A56U C85U	1.12
U60G C64G	0.919
U60G C64U	0.897
C57G G74C	0.446
A56G G82C	0.193
U60C C66G	1.02
U60G A87U	0.906
C57U A71G	1.12
A56U G59U	1.08
U60A C61G	1.19
C57G U65G	0.85
A56U G74C	0.317
C57A G74C	0.108

Variant	self-cleavage
U60G G80U	0.277
A56C G76C	1.06
U60G U72C	0.489
A56G C61G	1.12
A56G C61A	0.849
C58G G74U	0.511
G59C A83U	0.469
G59C A83C	0.514
U60C U65A	1.27
C57A U72A	0.674
U60C G80U	0.157
U60C C64U	0.895
A56G G80C	0.259
A56G G80A	0.32
A56G G81U	0.332
G59A U72A	0.698
G59A U72G	0.637
C58G C85G	0.95
C58G C85U	0.956
C57U G74U	0.548
G59C C84G	0.831
C58G U60C	1.2
U60G C61A	1.11
U60G C61U	1.06

Variant	self-cleavage
G59A G74A	0.431
G59U C75G	0.123
C57A U79A	0.806
C57U A70C	0.855
A56G C86A	0.718
A56U C61A	0.943
A56U C61G	0.997
C57G C61U	0.967
C57A C85U	1.05
C57U C64A	0.901
C57U C64G	0.946
C57U C75G	0.0369
C57U C75A	0.095
C57G G81C	0.177
A56U U69C	0.733
C57U U72A	0.657
C57U U72C	0.566
C58A C63G	0.932
C58A C63A	1.04
C58A C85U	0.869
U60C A87G	1.03
U60C A87U	0.921
A56U G68C	0.872
G59C C66A	0.914

Variant	self-cleavage
C58A U65A	0.9
C57G C66A	0.923
C57G C66U	0.848
C58U A77C	0.489
C57U C61A	1.32
U60C C63G	1.09
A56U C62G	0.601
U60G A70U	0.969
G59C G81A	0.69
C58A G82C	0.17
C58A G82U	0.376
U60C G81A	0.604
C58U A87G	0.876
C57A U69G	0.675
G59C U60A	1.09
G59C C85U	1.14
U60G C63A	0.831
G59A U79G	0.906
U60C A70U	1.15
U60A G68C	0.791
U60A C62G	0.997
G59A C66A	0.867
U60C C84U	0.918
U60C C84A	0.698

Variant	self-cleavage
U60A A83C	0.554
U60A A83G	1.04
U60A A83U	0.356
G59A A70C	0.982
A56C G82U	0.404
A56C G82A	0.684
A56G U79G	0.65
C57U G73U	0.338
C57U G73C	0.748
C57G A87U	0.861
C57A A77U	0.486
C57A A77C	0.314
C58A G80U	0.21
C58A C64G	1.06
C58A C64U	1.15
A56G G74U	0.564
C58G A87U	0.897
A56U A71G	0.762
A56U A71U	0.864
C61A A71U	0.784
C61A A71G	1.11
G59A G80A	0.305
G59A G80U	0.179
A56U C84G	0.697

Variant	self-cleavage
A56U C84A	0.895
C58G A71C	0.802
U60C C86G	0.982
U60C A83G	0.707
G59C U69C	1.23
C57A C64U	1
C58U G68A	0.855
A56G G76U	1.22
U60A G74C	0.225
U60A G74U	0.521
U60C U69C	1.2
U60C U69A	0.802
C58G G73C	0.582
A56U C75U	0.237
G59A G73A	0.665
G59A G73C	0.394
U60G G82A	0.6
C61A A70C	1.01
C61A A70U	1.17
U60G G67C	0.98
U60G G67A	0.91
C57U A77G	0.941
C57U A77U	0.648
C58G C84A	0.817

Variant	self-cleavage
C58G C84G	0.554
G59A C64A	0.862
G59A A77C	0.475
G59C G76U	0.891
G59C C64U	1.14
G59C G74U	0.531
C57A C86G	0.89
A56C U72G	0.383
A56U A77C	0.341
G59A C84U	0.73
U60C C61U	0.718
A56C U65A	0.955
A56G G67U	0.997
G59A G67U	0.918
U60A C84G	0.475
G59C G82A	0.32
A56G C63A	0.831
C58G C62A	0.796
A56U G80A	0.358
A56U G80C	0.22
A56U G80U	0.237
A56U U72A	0.764
G59U C61G	1.2
G59U C61A	0.968

Variant	self-cleavage
C58U C84G	0.665
A56G G59C	1.3
C58A C66U	0.917
G59C A71U	1.06
C58U U60A	0.845
C58U U60C	1.19
U60C A71C	1.27
C58G G68U	0.959
A56G A77U	0.739
C58A C62A	1.26
A56G G68U	1.18
A56G G68C	1.01
C57G C63A	0.956
G59U G67U	1.17
G59C G68U	1.07
C57A G68C	1.06
C58A	1.02
C58U	1.04
C58G	0.964
G59U G68A	0.88
G59U G68U	1
C58U C64U	0.987
C58A C61U	0.972
C58A C61G	1.03

Variant	self-cleavage
G59A U65A	0.933
U60A G67C	1.03
U60A G67U	0.818
U60A G67A	0.95
C57U C85G	0.984
U60G A78G	0.72
U60G A78U	0.178
U60G A78C	0.151
C57A G73A	0.708
C57A G73C	0.523
C57G A78G	0.629
G59C A87U	0.981
C57U A78C	0.312
U60A G82A	0.373
U60A A87U	0.985
A56U G67C	0.904
A56U C66U	0.923
C58A G74U	0.554
C58A G74A	0.426
G59U G81U	0.433
U60G A71G	0.831
U60A A71G	1.12
U60A A71U	1.03
A56G G73A	0.749

Variant	self-cleavage
C58G G81A	0.243
C57G G80C	0.125
G59U A87G	0.993
C58A U79G	0.772
C57A C61A	1.05
U60G U79C	0.203
U60A G76C	0.973
U60A G76U	1.01
A56G C64G	0.791
A56U U60C	1.13
U60G G68U	0.762
C57U G76C	0.902
C57U G76A	1.1
C57U G76U	0.906
C57G G67C	0.923
C57G G67U	0.8
C57A C66U	1.18
U60C G73A	0.815
U60C	1.01
U60G	0.978
U60A	1
A56C U60C	0.98
A56G C58G	0.911
C58G G80C	0.147

Variant	self-cleavage
C58G G80A	0.332
C58U A71C	0.85
C58U A71G	1.08
U60A G80C	0.0354
G59U C63A	0.935
G59A C61A	1.02
U60G G74C	0.443
U60G G74A	0.227
C57A A83C	0.684
C58U U65G	0.964
C58U U65C	1.03
C58G G82U	0.534
C57U G80U	0.147
U60C A78G	0.935
U60A G73U	0.475
C58G G67U	0.892
C58G G67C	0.739
U60G U69G	0.755
C57G C58U	1.07
G59C G67C	0.929
C57A C62G	0.85
C57A C62U	1.06
C57U U60A	1.07
G59C C62A	0.87

Variant	self-cleavage
A56G A71U	0.957
A56G A71G	0.918
G59C G73A	0.779
U60G C66G	1.05
U60G C86G	1.14
G59C C63A	1.17
C58G C86G	0.969
A56G C57A	0.847
A56G C57G	0.8
U60G G76C	1.09
G59A U60A	0.979
C58G A78C	0.102
G59U C66A	0.904
C57A U60A	0.898
C57A U60C	1.01
G59U C84A	0.863
U60G A83C	0.612
U60C C75U	0.203
G59U A78G	0.904
G59U G80C	0.141
U60A C86A	0.577
C57U A83C	0.665
U60G G73A	0.591
C58A A71G	0.897

Variant	self-cleavage
C58G C64A	0.855
C58G G76U	1.11
C57A C75G	0.0978
U60A A77U	0.453
U60A A77G	1.14
G59U A71U	0.862
A56C G81C	0.266
A56C G81A	0.415
G59C A77G	1.13
G59C A77U	0.534
C58G U65A	0.944
C57G G82A	0.302
A56G A78U	0.181
A56G A78C	0.203
C57G A77C	0.237
G59C G80A	0.409
C58G C63A	0.813
A56U A87G	1.02
C58U G67C	1.07
C57U C86A	0.882
A56U A78C	0.272
A56U A78U	0.0573
